± gives the uncertainty stated by the source.
Assay: amyloid nucleation score (Sup35N fusion, yeast selection) (log enrichment); library NNK2; higher = more nucleation; inactive = no reads after selection
Method in brief: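 Peptides of 20 random codons fused to Sup35N were expressed in psi-negative yeast, induced 24 hours with 100 μM copper sulfate, then grown 7 days at 30°C on medium lacking adenine and uracil. Input and output plasmid inserts were Illumina-sequenced. Nucleation score is the DiMSum log enrichment of output over input reads, centred on the mode score of non-aggregating sequences, excluding sequences with under 100 input reads. Random libraries had three technical output replicates.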

| Substance | amyloid nucleation score |
| --- | --- |
| KRKFRMWSQNIFLKVGNILA | -1.47 ± 0.55 |
| KRKKQKFAMLYVSGNLLRRD | 0.234 ± 0.28 |
| KRNLVCAISFLDSRSCRRTA | 0.119 ± 0.24 |
| KRNRQMSFRMVSLTRNTSPH | 0.792 ± 0.53 |
| KRSCDQVCLLSRLIGQAGEW | 2.26 ± 0.1 |
| KRVFKLSESTTRVIMWGRYS | inactive |
| KRYLWTGN | -0.534 ± 0.35 |
| KSCDIL | -0.335 ± 0.79 |
| KSCSEV | -0.047 ± 0.35 |
| KSDQLGCRLVDRGNCFSNRL | inactive |
| KSEKTHRIAMLNMSLVSYMR | 3.97 ± 0.053 |
| KSNLCLNVHGSLGICPTHDL | 0.178 ± 0.37 |
| KSPFVICGKRDVRK | -1.28 ± 1.1 |
| KSPPFMGSAERVSRRNGRGL | -0.417 ± 0.36 |
| KSQLYNYAVSM | -1.59 ± 0.64 |
| KSQVPPNFWVVMCLTEFSVV | 5.628 ± 0.046 |
| KSRISMPPSVLLDYGLAHNA | -0.598 ± 0.63 |
| KSSEHRGCLICTIIAVDL | 6.977 ± 0.039 |
| KSTLANHFTVLIGDTADLHG | inactive |
| KSVGVQALMLAKGIYFSING | 1.53 ± 0.28 |
| KSVTVGADHNVDVGVAEMIR | 1.79 ± 0.32 |
| KTCRFLCA | 0.176 ± 0.64 |
| KTCSACVSIKICLLNDGGNW | 9.63 ± 0.052 |
| KTCSDMWYAVRHSNHETSV | 1.34 ± 0.52 |
| KTLKNEFVDMNQMIYNY | -0.489 ± 0.79 |

| Substance | amyloid nucleation score |
| --- | --- |
| KVFSNIVMLLSVRLCCLMKI | -1.58 ± 1.1 |
| KVGERISPELSGMFYGTLWY | -0.305 ± 0.74 |
| KVIPVALNTRIAWGTHRLMM | 0.958 ± 0.27 |
| KVMIVNRVIYTNRFNQGLTM | 7.705 ± 0.051 |
| KVSYMFLVTLSYGSWFPSSM | -0.545 ± 0.45 |
| KWDHPKEVFCSVRTSGRGVE | 2.04 ± 0.072 |
| KWFNVCIWKCAWLYIDGVGC | 3.95 ± 0.066 |
| KWGRCSIGT | inactive |
| KWKLMCDAFLS | -0.969 ± 0.48 |
| KWRDRNDINNFRQGLLCSVN | 3.03 ± 0.14 |
| KWSYSPVGKHYLYMMWDGHS | 0.409 ± 0.3 |
| KWYFRSWRLMLYSVKFSFRI | -0.693 ± 0.55 |
| KYRYRLVQR | -0.656 ± 1.1 |
| KYTVSLVDLGCFQSKGCDST | inactive |
| KYVGWQYLSSCILGVFPLAG | 0.151 ± 0.32 |
| KYVIR | -0.606 ± 1.1 |
| KYVWSVEGKVAVAGVAMSCA | 0.025 ± 1.1 |
| KYYRQSCQDRPILFDVALYY | inactive |
| LAFDK | inactive |
| LAGRC | 0.968 ± 0.56 |
| LALKGLLFSHNGKLEKGQV | -0.17 ± 0.79 |
| LALMFLYAALFHAAR | 7.139 ± 0.058 |
| LALNLQNCTRGGFTILTVS | inactive |
| LAMYLWCTELP | -0.057 ± 0.63 |
| LARFSDMDKMKGSVGFWALK | -0.014 ± 0.62 |

| Substance | amyloid nucleation score |
| --- | --- |
| LASSKEACVHTVMAIVSVGA | 2.08 ± 0.12 |
| LASYLRFSISSVIFNTRAIL | -0.315 ± 0.54 |
| LATKTLSMSLESICRNTVAF | inactive |
| LAWWFY | -0.325 ± 0.76 |
| LCARALLH | 0.905 ± 0.32 |
| LCDIIQAF | -0.626 ± 1.1 |
| LCGMLYAAAGHWFSVMPPGD | 0.997 ± 0.32 |
| LCIIWVVRFYALWWSEPMGW | 1.14 ± 0.18 |
| LCILVFRGASRSLFSGGVFT | -0.199 ± 0.76 |
| LCIPSVTTDS | inactive |
| LCLRDFSFDGLVGSR | 0.119 ± 0.65 |
| LCMCLRNMLSPAMVVTSNPP | 0.737 ± 0.2 |
| LCMRTFGLHHCPGYG | 1.2 ± 0.37 |
| LCRIDRVWQLGYRWLYQDVV | 4.34 ± 0.084 |
| LCRYFQN | 0.218 ± 0.8 |
| LCSTHVMKLWFYVSFLLF | -0.397 ± 0.78 |
| LCTTNSLF | -0.671 ± 0.38 |
| LCWSYCRVKCGHMFVGVRGS | 0.58 ± 0.56 |
| LDATNSKNVYRMPAWKGNMR | 0.564 ± 0.32 |
| LDILIYLKILDISFGNESCM | 0.002 ± 0.17 |
| LDISSDPFFSS | -1.25 ± 1.1 |
| LDLGAPPWH | 1.03 ± 0.36 |
| LDNYCFHAASYSQHNSSTGP | 0.804 ± 0.46 |
| LDPNSYHKSRWFNMMSFIRV | 0.611 ± 0.81 |
| LDYLGETNLLVRWHLAVTAS | 0.626 ± 0.16 |

| Substance | amyloid nucleation score |
| --- | --- |
| LEAISCKWYTLYVVYSCNSW | -0.877 ± 1 |
| LECNDA | 0.322 ± 0.51 |
| LELVCRPISMSGWSGYHTCR | 0.983 ± 0.41 |
| LEVLVLDVYSYVSLHVGTFV | 0.051 ± 0.35 |
| LEVYVLFTVTYAVMRMNMDG | 0.302 ± 0.56 |
| LEYFITTSGSSSKVLHGFTM | -0.986 ± 1.1 |
| LFAYYGWVFYMSIRCVHMGM | -0.583 ± 1.1 |
| LFDGARINTVNECVYWNS | inactive |
| LFDGRNYF | -0.669 ± 0.46 |
| LFDSLPDYITTYYNNDAQQG | -1.85 ± 1 |
| LFDVADIDA | 0.736 ± 0.74 |
| LFESMPGCDDSNELIFWGIA | -0.722 ± 0.28 |
| LFGGRGKRVRLKVLLTQRF | -0.37 ± 0.32 |
| LFGHRFPSYL | -0.152 ± 1 |
| LFGNWSFVVNRCVVSLKLM | inactive |
| LFIDLEMLFSPRN | 5.471 ± 0.048 |
| LFIICNSVVHMDLASVGNVS | 8.409 ± 0.043 |
| LFIYYWYLLFYGSPYIWLPV | -0.363 ± 1.1 |
| LFLCYFIRT | 2.17 ± 0.1 |
| LFMKRER | -0.179 ± 0.76 |
| LFMLYCFHLQDMKRVQICVH | 0.188 ± 0.19 |
| LFNAVGLATV | 0.33 ± 0.74 |
| LFSALFGRW | 4.26 ± 0.05 |
| LFSTYRNFIFVIHSADMCKS | -0.558 ± 1 |
| LFTVLKTVWANNNTYDSKQK | -1.23 ± 0.78 |

| Substance | amyloid nucleation score |
| --- | --- |
| LFTVWVASVVWSCADVA | -1.34 ± 0.78 |
| LFVLVREVNVLTFLCPSEDQ | 8.52 ± 0.066 |
| LGDRCNS | 2.36 ± 0.11 |
| LGFHWIRNGGGLVTVNLVCV | 0.747 ± 0.27 |
| LGFMNCSLMHAGRVGPREHF | 2.72 ± 0.13 |
| LGHTH | 1.06 ± 0.53 |
| LGIVVVHWTPIIAGW | -1.11 ± 0.56 |
| LGNWCGYWYFHHISSYGLMR | -0.419 ± 0.5 |
| LGPTVYDFLHMCFYFRA | 4.74 ± 0.065 |
| LGSRGSRSIAESFAGKIRI | -0.226 ± 1.1 |
| LGVNYAMNVTSGSQTFMRDG | -0.243 ± 1 |
| LGYSLAACNQETGNDRYMAR | 0.121 ± 0.34 |
| LHIMVFQYLKWHTAI | -0.07 ± 0.49 |
| LHMCHWDSYSE | 1.36 ± 0.35 |
| LHNDLLKVNSERENNNDLGS | 0.089 ± 0.5 |
| LHQGKPYITLALYRFLHGSR | -1.15 ± 1.1 |
| LHRYRNAQVSWE | -0.512 ± 0.74 |
| LHSYVFTKGSRTQCRWRKNP | 0.07 ± 0.28 |
| LICGARYINFSGKGNY | 0.023 ± 0.29 |
| LILDILSRGSAYYDCTRMKG | inactive |
| LILSSSSLVGVALRRVYCVT | -0.809 ± 0.34 |
| LILTCPCMCRFYVWGSTQYR | -0.313 ± 0.39 |
| LILTFLEWNLFFYSFNIFTY | 5.39 ± 0.078 |
| LIPLIVLGGTDSFKELYGYE | -0.624 ± 0.61 |
| LISEVALGFAPMKIVRGFLD | -0.284 ± 0.56 |

| Substance | amyloid nucleation score |
| --- | --- |
| LISGRMHNVCEPGAKSRTLR | 0.76 ± 0.18 |
| LISVDFRYYGYVVLGWISTL | 0.807 ± 0.1 |
| LISWFWWENLKLCCSIFCFI | 4.4 ± 0.051 |
| LITINLSV | 8.427 ± 0.049 |
| LIVCWGMWFLQW | -1.74 ± 1.1 |
| LKDVGPYQRVRRGTVRYA | 0.756 ± 0.4 |
| LKLFNGVRPKNGM | -1.6 ± 0.75 |
| LKLYPGIFIICVRTMDFVFW | inactive |
| LKNVCFCIWRISWNKISQKI | inactive |
| LKPCLRFFNIIT | 3.44 ± 0.1 |
| LKQDKGITGEVVGVRILGS | 0.22 ± 0.32 |
| LKTLIKDPMLYGQALSRVFC | -0.737 ± 1.1 |
| LKWQSYG | 0.952 ± 0.28 |
| LLCFHTHLRKAMGVTINSIS | -1.19 ± 0.49 |
| LLCQITRVAIPCHVCGDDVA | 3.81 ± 0.13 |
| LLEYCCYFYRN | 3.57 ± 0.12 |
| LLFKMAYRPLWHDNNMMTCM | 0.112 ± 0.79 |
| LLFPM | 0.647 ± 0.8 |
| LLGLSGKYWIRGSKNSIFVW | 0.157 ± 0.39 |
| LLGQLKFLFLDVFLWLYVCS | 1.56 ± 0.22 |
| LLHGSLWAQSMSLCWLNVTG | 4.24 ± 0.088 |
| LLHNIDVRTSRME | -0.846 ± 0.44 |
| LLIKSSCFCSLDVFFS | 3.69 ± 0.089 |
| LLKKRANGYHYSKNLKCPAR | -1.29 ± 1.1 |
| LLKLNGILVCLDRGVMPHDS | 2.57 ± 0.092 |

| Substance | amyloid nucleation score |
| --- | --- |
| LLLGINSCQEQPKGSFEERH | -0.91 ± 1.1 |
| LLLIADYMSLVCCRAGVRDV | 0.215 ± 0.42 |
| LLLITVVIRCRSWVWGWLIS | -0.358 ± 0.74 |
| LLLPSAGKGSL | 0.219 ± 1 |
| LLMMRGSRVSNS | -0.763 ± 0.39 |
| LLMSCPLSLCSEGVTSLVEG | 1.29 ± 0.3 |
| LLNDFRQLNTRYDSRWGQWQ | 3.08 ± 0.058 |
| LLNILISRAYLWSGFFERFL | inactive |
| LLNRSRSL | -0.723 ± 0.45 |
| LLPCLPLPFMSPITARATHI | 3.24 ± 0.058 |
| LLPSGIIH | -0.815 ± 0.5 |
| LLRDSVY | -0.817 ± 1.1 |
| LLRRNFNYVYIIYLILSSPV | inactive |
| LLRSLNLVG | 0.288 ± 0.65 |
| LLRTHTSYRL | -0.836 ± 0.55 |
| LLRVMLHISLVMC | -1.34 ± 0.53 |
| LLSFLMRSRRFLSTVKY | -0.931 ± 0.78 |
| LLVAALSHGPGISRSVNSHP | 5.91 ± 0.061 |
| LLWSTILMFWF | inactive |
| LLYCCLRWMDSIQGLRPAFE | 1.1 ± 0.61 |
| LMDRLFMKCDGLAG | 0.216 ± 0.53 |
| LMKLNSTLSFDYFPLT | -0.166 ± 0.65 |

From the supplement of paper PMC12042874
